Assay results published in paper PMC7272391.
Where “and” joins values, the source holds several entries; their conditions need not be identical. Equal values may be shown once.

What was measured:
[1] = target: human Fc-gamma receptor IIb (human) (UniProt P31994); test: SPR; BIAcore chip with immobilised anti-His antibody capturing His-tagged human FcγRIIa, IIb, IIIa(F), IIIa(V), IIIbNA1 or IIIbNA2; antibody exchanged into assay buffer and injected at 0.125-4.0 mg/mL; steady state affinity model
[2] = target: human Fc-gamma receptor IIa (human) (UniProt P12318); test: as above
[3] = target: human Fc-gamma receptor IIIa(F) (human) (UniProt P08637); test: as above
[4] = target: human neonatal Fc receptor (human) (UniProt P55899); test: SPR; BIAcore chip with immobilised anti-β2-microglobulin antibody capturing human FcRn; antibody diluted >5000-fold in assay buffer and injected at 0.15625-2.5 μg/mL; bivalent analyte model
[5] = target: human Fc-gamma receptor I (human) (UniProt P12314); test: SPR; BIAcore chip with immobilised anti-His antibody capturing His-tagged human FcγRI; antibody diluted >5000-fold in assay buffer and injected at 0.125-4.0 μg/mL; 1:1 Langmuir binding model
Sequence of UniProt P12314 (P12314 16-374): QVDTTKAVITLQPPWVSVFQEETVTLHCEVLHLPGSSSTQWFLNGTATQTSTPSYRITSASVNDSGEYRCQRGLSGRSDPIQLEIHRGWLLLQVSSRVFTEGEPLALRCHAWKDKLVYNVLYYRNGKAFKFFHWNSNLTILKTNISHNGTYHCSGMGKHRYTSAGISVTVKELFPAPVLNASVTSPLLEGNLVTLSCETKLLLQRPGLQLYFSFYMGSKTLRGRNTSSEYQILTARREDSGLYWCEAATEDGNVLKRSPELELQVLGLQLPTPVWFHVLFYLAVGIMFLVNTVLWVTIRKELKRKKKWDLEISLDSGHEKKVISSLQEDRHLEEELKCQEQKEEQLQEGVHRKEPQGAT

Sequence of UniProt P31994 (P31994 43-310): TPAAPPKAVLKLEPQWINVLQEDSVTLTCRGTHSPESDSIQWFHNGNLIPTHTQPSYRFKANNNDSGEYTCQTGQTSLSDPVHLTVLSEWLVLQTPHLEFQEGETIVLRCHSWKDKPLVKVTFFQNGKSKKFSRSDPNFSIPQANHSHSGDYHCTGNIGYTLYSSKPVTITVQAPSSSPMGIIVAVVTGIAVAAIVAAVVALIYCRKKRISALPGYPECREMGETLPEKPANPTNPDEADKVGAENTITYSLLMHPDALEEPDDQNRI
Sequence of UniProt P12318 (P12318 34-317): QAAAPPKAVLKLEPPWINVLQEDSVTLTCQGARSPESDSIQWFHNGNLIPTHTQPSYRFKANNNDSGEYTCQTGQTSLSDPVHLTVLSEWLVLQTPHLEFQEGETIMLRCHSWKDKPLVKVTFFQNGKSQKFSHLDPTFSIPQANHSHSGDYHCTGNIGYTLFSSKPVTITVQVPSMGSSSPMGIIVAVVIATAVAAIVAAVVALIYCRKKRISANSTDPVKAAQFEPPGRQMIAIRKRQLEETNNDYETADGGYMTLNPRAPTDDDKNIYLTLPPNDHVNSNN
Sequence of UniProt P08637 (P08637 17-254): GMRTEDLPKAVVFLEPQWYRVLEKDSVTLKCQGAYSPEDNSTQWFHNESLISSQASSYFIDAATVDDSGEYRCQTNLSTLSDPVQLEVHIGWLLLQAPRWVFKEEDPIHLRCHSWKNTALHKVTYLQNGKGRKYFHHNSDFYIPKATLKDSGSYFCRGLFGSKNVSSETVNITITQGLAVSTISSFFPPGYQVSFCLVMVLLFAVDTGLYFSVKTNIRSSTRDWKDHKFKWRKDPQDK

Kd [1]: 13.8 µM and 15.7 µM
Kd [2]: 7.65 µM and 8.47 µM
Kd [3]: 1 µM
Kd [4]: 0.0664 µM and 0.0759 µM
Kd [5]: 0.000382 µM and 0.000436 µM
Substance: FKB327 (antibody)
